Reference: PMC12087451, “The SmWRKY32-SmbHLH65/SmbHLH85 regulatory module mediates tanshinone biosynthesis in Salvia miltiorrhiza”

Assays:
GST-SmWRKY32 [1] = biological target: T1, GST-SmWRKY32 (Salvia miltiorrhiza, UniProt A0A0D5YAE6 1-129); test: EMSA; Chemiluminescent EMSA kit (Beyotime GS009) EMSA/Gel-Shift binding buffer, 25 C, 10 min then 20 min with biotin probe, 6% PAGE; salt and pH not stated; details: protein: recombinant; tags: N-terminal GST (pGEX-4T-1); label: biotin (labelled probe); blunt
T1 sequence (A0A0D5YAE6 entry or part of it): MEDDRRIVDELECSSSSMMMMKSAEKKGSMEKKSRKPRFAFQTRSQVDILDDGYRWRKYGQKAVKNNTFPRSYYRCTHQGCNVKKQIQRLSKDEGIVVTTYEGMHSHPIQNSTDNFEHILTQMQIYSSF

GST-SmWRKY32 [2] = biological target: T1, GST-SmWRKY32; test: competition; 50-fold unlabelled mutant competitor; Chemiluminescent EMSA kit (Beyotime GS009) EMSA/Gel-Shift binding buffer, 25 C, 10 min then 20 min with biotin probe, 6% PAGE; salt and pH not stated; details: protein: recombinant; tags: N-terminal GST (pGEX-4T-1); label: none; blunt

| Binder | binding result (GST-SmWRKY32 [1]) | binding result (GST-SmWRKY32 [2]) |
| --- | --- | --- |
| pSmbHLH65 W-box probe (3 copies) (dsDNA) DNA 1: TTCATTGACCAAATTTCATTGACCAAATTTCATTGACCAAAT DNA 2: ATTTGGTCAATGAAATTTGGTCAATGAAATTTGGTCAATGAA | binds | – |
| pSmbHLH65-M cold probe (dsDNA) DNA 1: TTCAAAAAAAAAATTTCAAAAAAAAAATTTCAAAAAAAAAAT DNA 2: ATTTTTTTTTTGAAATTTTTTTTTTGAAATTTTTTTTTTGAA | – | no binding |
